Series [1] can be described thus: Serum chemistry panel and liver histology of treated tumor-bearing mice. It counts as in vivo. The settings on record: n=5 mice per treatment; FIG. 21. The procedure: In example studies, 0.5×10^6 to 1×10^6 4 T1 mouse mammary carcinoma cells were injected into the mammary fat pads of balb/c mice. Once the tumors were greater than 5 mm in diameter, mice were randomized and treated via tail vein catheter with PEMs (at 100 μL of 2.5 mg/mL Mb, corresponding to 50 mg/mL polymer suspensions), empty polymersomes (at equivalent polymer doses), and NIR-Mb (at equivalent myoglobin doses) (n=5 per group). NIR-Mb and PEM were reduced to their oxy-myoglobin form prior to treatment, following protocols discussed above. Mice were sacrificed at 24 h (for biodistribution/pharmacokinetic studies) or at 6-9 days (for histology and toxicology assessment following tumor efficacy studies). In both cases, EF-5 was used to stain for hypoxia and Hoechst solution for perfusion. Tumors were collected at sacrifice. Immunofluorescence (IF) was carried out to image EF-5 and Hoechst distribution throughout the tumors. The same tumor sections were also stained with hematoxylin and eosin (H&E) for immunohistologic (IHC) analysis. Blood was collected via cardiac puncture at sacrifice; plasma was isolated and stored at −80° C. for later analyses.
FIG. 21 provides results of a serum chemistry panel done for a set of tumor-bearing mice injected with each of the following treatments (n=5 mice per treatment): NIR-myoglobin (control), empty polymersomes (control), and PEMs. […]

The nature of series [2]: Biodistribution/pharmacokinetics after IV injection in 4T1 tumor-bearing mice. The settings on record: via the kidneys and into the bladder. Format: in vivo, balb/c mice. The procedure: In example studies, 0.5×10^6 to 1×10^6 4 T1 mouse mammary carcinoma cells were injected into the mammary fat pads of balb/c mice. Once the tumors were greater than 5 mm in diameter, mice were randomized and treated via tail vein catheter with PEMs (at 100 μL of 2.5 mg/mL Mb, corresponding to 50 mg/mL polymer suspensions), empty polymersomes (at equivalent polymer doses), and NIR-Mb (at equivalent myoglobin doses) (n=5 per group). NIR-Mb and PEM were reduced to their oxy-myoglobin form prior to treatment, following protocols discussed above. Mice were sacrificed at 24 h (for biodistribution/pharmacokinetic studies) or at 6-9 days (for histology and toxicology assessment following tumor efficacy studies). […]
For all biodistribution studies, NIR imaging of polymersomes, NIR-Mb and PEM was conducted with an MS® Kinetic Imaging System (Perkin Elmer, AeX=745 nm, Aem=810-875 nm) equipped with a Xenogen XGI-8 gas anesthesia system. Fluorescence images were analyzed with Living Image® 4.2 software by measuring radiant efficiency of regions of interest (ROIs). […]
For the pharmacokinetic studies, 15-100 μL blood samples were drawn (using a 5.5 mm lancet, Goldenrod) from the submandibular vein of the mouse and collected directly into heparinized capillary tubes (Kimble). […] The total radiant efficiency of the plasma in each capillary tube was measured in a region of interest of consistent dimensions. […]

The nature of series [3]: Oxygen equilibrium binding curves (Hemox Analyzer, Hill model). The settings on record: partial pressure of O2 at 50% saturation; 37° C. The procedure:
Oxygen equilibrium binding curves of PEM and free Mb dispersions may be measured using a Hemox™ Analyzer at physiological temperature (37° C.). In brief, samples may be allowed to saturate to a pO2 of 147 mm Hg using compressed air and then deoxygenated using a compressed nitrogen stream. UV-Vis absorbance measurements of oxygenated and deoxygenated samples may be recorded as a function of pO2 via dual wavelength spectroscopy. Oxygen-PEM/myoglobin equilibrium curves may be fit to a four-parameter (A0, A∞, P50, n) Hill model:
in which A0 and A∞ represent the absorbance at 0 mm Hg and at full O2 saturation, respectively. The pO2 represents the partial pressure of O2, and P50 represents the partial pressure of O2 where PEM/Mb is 50% saturated with oxygen. Lastly, ‘n’ represents the cooperativity coefficient of PEM/Mb. […] The lower O2 affinity (higher P5o) of PEM than free myoglobin may be attributed to the shielding effect of the polymersome membrane, which was further found to delay the kinetics of O2 binding to PEM.

B1: NIR-Mb: near-infrared fluorophore (IRDye800cw NHS) covalently attached to the lysines on horse skeletal myoglobin; negative control (conjugate, UniProt P68082 2-154, looked up)
Myoglobin: GLSDGEWQQVLNVWGKVEADIAGHGQEVLIRLFTGHPETLEKFDKFKHLKTEAEMKASEDLKKHGTVVLTALGGILKKKGHHEAELKPLAQSHATKHKIPIKYLEFISDAIIHVLHSKHPGDFGADAQGAMTKALELFRNDIAAKYKELGFQG
modifications: IRDye800CW NHS on lysines
notes: near-infrared fluorophore (IRDye800cw NHS) covalently attached to the lysines on horse skeletal myoglobin; negative control
For B1, the serum chemistry panel result in series [1] is on record as “no consistently elevated levels for any parameter”. Also, the plasma clearance entry in series [2] is “extremely rapid plasma clearance”.

B2: free Mb: free (unencapsulated) myoglobin, a cytoplasmic heme protein (protein, UniProt P02144 2-154, looked up)
Myoglobin: GLSDGEWQLVLNVWGKVEADIPGHGQEVLIRLFKGHPETLEKFDKFKHLKSEDEMKASEDLKKHGATVLTALGGILKKKGHHEAEIKPLAQSHATKHKIPVKYLEFISECIIQVLQSKHPGDFGADAQGAMNKALELFRKDMASNYKELGFQG
In the case of B2, the P50 in series [3] is given as around 2 mm Hg.

For the origin of these results see patent US20170361126A1, “Compositions and Methods for Inducing Nanoparticle Mediated Microvascular Embolization of Tumors” (Vindico NanoBioTechnology, LLC, priority 2011, published 2017).
